Reference: the supplement of paper PMC9112550, “Optimization of the antimicrobial peptide Bac7 by deep mutational scanning” (BMC Biology, 2022)

tested on: Escherichia coli TOP10; experiment: shrunken log2 fold change of peptide-encoding DNA abundance (4.5 h post-induction vs induction); higher = less antimicrobial activity (less host growth inhibition); settings: time post-induction: 4.5 h; library: site-saturation at positions 5, 18, 19, 20
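Further: peptides expressed intracellularly from a pBAD plasmid library in pooled LB shake-flask culture, induced with 0.3% L-arabinose, DNA abundance read by NGS, three biological replicates, DESeq2 with apeglm shrinkage.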

| Sequence | shrunken log2 fold change |
| --- | --- |
| RRIRCRPPRLPRPRPRPKKPPRP | -0.0369 |
| RRIRPRPPRLPRPRPRPYSEPRP | 0.0371 |
| RRIRGRPPRLPRPRPRPKEWPRP | -0.00523 |
| RRIRSRPPRLPRPRPRPDFMPRP | -0.159 |
| RRIRRRPPRLPRPRPRPWYDPRP | -0.25 |
| RRIRERPPRLPRPRPRPDRDPRP | -0.0369 |
| RRIRSRPPRLPRPRPRPLMEPRP | -0.0249 |
| RRIRARPPRLPRPRPRPFMIPRP | -0.1 |
| RRIRIRPPRLPRPRPRPNKRPRP | -0.368 |
| RRIRPRPPRLPRPRPRPVAIPRP | -0.0776 |
| RRIRWRPPRLPRPRPRPPNGPRP | 0.034 |
| RRIRDRPPRLPRPRPRPGGGPRP | 1.08 |
| RRIRPRPPRLPRPRPRPAIFPRP | -0.0302 |
| RRIRRRPPRLPRPRPRPHFEPRP | -0.211 |
| RRIRNRPPRLPRPRPRPRAQPRP | 0.188 |
| RRIRARPPRLPRPRPRPRHQPRP | 0.178 |
| RRIRHRPPRLPRPRPRPSSSPRP | -0.258 |
| RRIRQRPPRLPRPRPRPVIFPRP | -0.0797 |
| RRIRRRPPRLPRPRPRPQVHPRP | 0.148 |
| RRIRRRPPRLPRPRPRPVGGPRP | 0.984 |
| RRIRQRPPRLPRPRPRPGAIPRP | 0.0781 |
| RRIRARPPRLPRPRPRPKYKPRP | -0.31 |
| RRIRHRPPRLPRPRPRPVIVPRP | -0.204 |
| RRIRIRPPRLPRPRPRPHRVPRP | -0.24 |
| RRIRLRPPRLPRPRPRPTALPRP | -0.134 |

| Sequence | shrunken log2 fold change |
| --- | --- |
| RRIRTRPPRLPRPRPRPQILPRP | -0.105 |
| RRIRKRPPRLPRPRPRPQQIPRP | -0.248 |
| RRIRWRPPRLPRPRPRPNPNPRP | 0.055 |
| RRIRERPPRLPRPRPRPADRPRP | -0.173 |
| RRIRQRPPRLPRPRPRPKILPRP | -0.0155 |
| RRIRGRPPRLPRPRPRPWDQPRP | 0.432 |
| RRIRGRPPRLPRPRPRPESDPRP | 2.08 |
| RRIRVRPPRLPRPRPRPTWGPRP | 0.436 |
| RRIRMRPPRLPRPRPRPGMNPRP | -0.00589 |
| RRIRQRPPRLPRPRPRPVFEPRP | 0.0624 |
| RRIRKRPPRLPRPRPRPHDTPRP | -0.0804 |
| RRIRWRPPRLPRPRPRPRNCPRP | -0.00862 |
| RRIRGRPPRLPRPRPRPCKTPRP | 0.0121 |
| RRIRQRPPRLPRPRPRPPRWPRP | 0.303 |
| RRIRYRPPRLPRPRPRPCYQPRP | -0.285 |
| RRIRKRPPRLPRPRPRPYCSPRP | -0.0347 |
| RRIRMRPPRLPRPRPRPEGGPRP | 1.33 |
| RRIRYRPPRLPRPRPRPKCTPRP | -0.0162 |
| RRIRVRPPRLPRPRPRPTFPPRP | 0.0553 |
| RRIRLRPPRLPRPRPRPSQMPRP | -0.261 |
| RRIRHRPPRLPRPRPRPLGVPRP | -0.109 |
| RRIRCRPPRLPRPRPRPHDMPRP | -0.234 |
| RRIRWRPPRLPRPRPRPTTKPRP | 0.5 |
| RRIRHRPPRLPRPRPRPCPCPRP | -0.114 |
| RRIRARPPRLPRPRPRPAYNPRP | 0.0748 |

| Sequence | shrunken log2 fold change |
| --- | --- |
| RRIRDRPPRLPRPRPRPAMHPRP | 0.527 |
| RRIRSRPPRLPRPRPRPAMTPRP | 0.459 |
| RRIRIRPPRLPRPRPRPFDNPRP | -1.1 |
| RRIRPRPPRLPRPRPRPKVGPRP | 0.172 |
| RRIRTRPPRLPRPRPRPNCNPRP | -0.353 |
| RRIRFRPPRLPRPRPRPSLLPRP | -0.311 |
| RRIRNRPPRLPRPRPRPTRQPRP | 0.196 |
| RRIRHRPPRLPRPRPRPEILPRP | -0.00654 |
| RRIRCRPPRLPRPRPRPRARPRP | 0.708 |
| RRIRARPPRLPRPRPRPHGGPRP | 0.301 |
| RRIRERPPRLPRPRPRPRCSPRP | 0.0243 |
| RRIRRRPPRLPRPRPRPFIFPRP | 0.25 |
| RRIRGRPPRLPRPRPRPYDNPRP | -0.183 |
| RRIRSRPPRLPRPRPRPSSGPRP | -0.0991 |
| RRIRGRPPRLPRPRPRPDESPRP | 0.0316 |
| RRIRWRPPRLPRPRPRPGDVPRP | 0.0583 |
| RRIRLRPPRLPRPRPRPWCYPRP | -0.489 |
| RRIRLRPPRLPRPRPRPCRTPRP | -0.66 |
| RRIRSRPPRLPRPRPRPRWIPRP | 0.00261 |
| RRIRKRPPRLPRPRPRPHSNPRP | 0.095 |
| RRIRARPPRLPRPRPRPSQTPRP | 0.416 |
| RRIRARPPRLPRPRPRPVRQPRP | 0.855 |
| RRIRERPPRLPRPRPRPGLQPRP | 0.103 |
| RRIRWRPPRLPRPRPRPMEMPRP | 0.0108 |
| RRIRLRPPRLPRPRPRPSECPRP | 0.215 |

| Sequence | shrunken log2 fold change |
| --- | --- |
| RRIRARPPRLPRPRPRPWFIPRP | -0.502 |
| RRIRQRPPRLPRPRPRPHATPRP | -0.0615 |
| RRIRWRPPRLPRPRPRPQFIPRP | -0.211 |
| RRIRPRPPRLPRPRPRPGTEPRP | -0.0123 |
| RRIRYRPPRLPRPRPRPVPFPRP | -0.348 |
| RRIRVRPPRLPRPRPRPPGDPRP | 0.12 |
| RRIRERPPRLPRPRPRPADDPRP | 0.000221 |
| RRIRIRPPRLPRPRPRPAHGPRP | 0.188 |
| RRIRYRPPRLPRPRPRPIRQPRP | -0.0123 |
| RRIRYRPPRLPRPRPRPCGRPRP | -0.00865 |
| RRIRTRPPRLPRPRPRPVCNPRP | -0.345 |
| RRIRFRPPRLPRPRPRPIVSPRP | 0.303 |
| RRIRCRPPRLPRPRPRPHVWPRP | -0.185 |
| RRIRPRPPRLPRPRPRPCRNPRP | -0.176 |
| RRIRTRPPRLPRPRPRPRPVPRP | 0.407 |
| RRIRWRPPRLPRPRPRPMVPPRP | -0.0589 |
| RRIRSRPPRLPRPRPRPRMRPRP | 0.91 |
| RRIRVRPPRLPRPRPRPHVGPRP | 0.0858 |
| RRIRSRPPRLPRPRPRPQSVPRP | -0.138 |
| RRIRKRPPRLPRPRPRPTPRPRP | 1.05 |
| RRIRPRPPRLPRPRPRPIGAPRP | 0.288 |
| RRIRHRPPRLPRPRPRPQVIPRP | -0.0106 |
| RRIRVRPPRLPRPRPRPSNAPRP | 0.111 |
| RRIRERPPRLPRPRPRPVYCPRP | -0.477 |
| RRIRDRPPRLPRPRPRPEDEPRP | 1.76 |

| Sequence | shrunken log2 fold change |
| --- | --- |
| RRIRHRPPRLPRPRPRPLNWPRP | 0.0279 |
| RRIRSRPPRLPRPRPRPEVHPRP | 0.0346 |
| RRIRVRPPRLPRPRPRPFEYPRP | -0.151 |
| RRIRDRPPRLPRPRPRPAMWPRP | 1.24 |
| RRIRGRPPRLPRPRPRPGPSPRP | 1.05 |
| RRIRWRPPRLPRPRPRPLEPPRP | 0.676 |
| RRIRVRPPRLPRPRPRPVQDPRP | 0.0752 |
| RRIRVRPPRLPRPRPRPTWDPRP | 0.178 |
| RRIRDRPPRLPRPRPRPIGRPRP | 0.00739 |
| RRIRPRPPRLPRPRPRPPMSPRP | -0.0803 |
| RRIRRRPPRLPRPRPRPYWQPRP | -0.0961 |
| RRIRARPPRLPRPRPRPYRTPRP | -0.0383 |
| RRIRCRPPRLPRPRPRPYYLPRP | -0.38 |
| RRIRTRPPRLPRPRPRPTWVPRP | 0.149 |
| RRIRERPPRLPRPRPRPNVNPRP | -0.34 |
| RRIRLRPPRLPRPRPRPDYSPRP | 0.14 |
| RRIRLRPPRLPRPRPRPYWYPRP | -0.542 |
| RRIRPRPPRLPRPRPRPDAEPRP | 0.496 |
| RRIRIRPPRLPRPRPRPGVDPRP | 0.0326 |
| RRIRFRPPRLPRPRPRPQNTPRP | -0.512 |
| RRIRVRPPRLPRPRPRPEFEPRP | -0.0823 |
| RRIRKRPPRLPRPRPRPAWFPRP | 0.0729 |
| RRIRRRPPRLPRPRPRPRLSPRP | -0.0979 |
| RRIRSRPPRLPRPRPRPKHTPRP | -0.206 |
| RRIRNRPPRLPRPRPRPGGSPRP | 0.407 |

| Sequence | shrunken log2 fold change |
| --- | --- |
| RRIRERPPRLPRPRPRPIITPRP | -0.867 |
| RRIRLRPPRLPRPRPRPRQRPRP | 0.892 |
| RRIRERPPRLPRPRPRPETYPRP | -0.152 |
| RRIRFRPPRLPRPRPRPCMFPRP | -0.556 |
| RRIRKRPPRLPRPRPRPVKQPRP | 0.0206 |
| RRIRRRPPRLPRPRPRPDTHPRP | -0.254 |
| RRIRPRPPRLPRPRPRPWVPPRP | -0.228 |
| RRIRGRPPRLPRPRPRPSRYPRP | -0.0843 |
| RRIRIRPPRLPRPRPRPDSRPRP | -0.0316 |
| RRIRMRPPRLPRPRPRPGSSPRP | 0.198 |
| RRIRSRPPRLPRPRPRPWRAPRP | 0.183 |
| RRIRFRPPRLPRPRPRPCVMPRP | -0.143 |
| RRIRKRPPRLPRPRPRPSASPRP | 0.288 |
| RRIRQRPPRLPRPRPRPSNDPRP | -0.357 |
| RRIRGRPPRLPRPRPRPLNVPRP | -0.095 |
| RRIRDRPPRLPRPRPRPFEYPRP | -0.00586 |
| RRIRVRPPRLPRPRPRPNGFPRP | -0.0486 |
| RRIRCRPPRLPRPRPRPCDRPRP | -0.351 |
| RRIRRRPPRLPRPRPRPVILPRP | -0.259 |
| RRIRARPPRLPRPRPRPSWCPRP | -0.207 |
| RRIRSRPPRLPRPRPRPAWSPRP | 0.58 |
| RRIRTRPPRLPRPRPRPVHMPRP | -0.123 |
| RRIRGRPPRLPRPRPRPEKLPRP | 0.844 |
| RRIRGRPPRLPRPRPRPRASPRP | 1.05 |
| RRIRNRPPRLPRPRPRPNRQPRP | -0.156 |
